Reference: the nanobody polyreactivity screen of Harvey et al. (2022)

Assay: yeast display, Sf9 membrane polyspecificity reagent, FACS + sequencing; frameworks hold sequencing errors
Summary of the method: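 Using colony PCR, genes from sorted yeast display clones were amplified, then sequenced on MiSeq at 2 × 250 and filtered by CDR length. The clones had been stained with 10% biotinylated, detergent-solubilized Sf9 membrane reagent for 1 hour at 4 °C and sorted by FACS into low and high (top ~1%) gates on anti-HA and streptavidin fluorescence. Polyreactivity labels come from the gate of origin.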

QVQLVESGGGLVQAGGSLRLSCAASASIFILNAMGWYRPAPGKERELVAAISWSGGRTNYADSVKGRFTISRDTAKNTVYLHMNSLKPEETAVYFCAARVTPYRGFYYWGQGTQVTVSS
polyreactivity (PSR sort gate): high polyreactivity

QVQLVESGGGLVQAGGSLRLSCAASGSTFYAYTMGWYRQAPGKEREFVAAISKSGGSTYYADSVKGRFTISRDNAKNTVYIQMNSLKPEDTAVYYCAARVYYRYDWGQGTQVTVSS
polyreactivity (PSR sort gate): high polyreactivity

QVQLVESGGGLVQAGGSLRLSCAASGSTFYGYAMGWYRQAPGKERELVAAISSGGRTKYADSVKGRFTISRDTAKNTVYLQMNSLKPEDTAVYYCYVSYLVYRWKFGWSMDYWGQGTQVTLSS
polyreactivity (PSR sort gate): low polyreactivity

QVQLVESGGGLVQAGGSHRLSCAASGSIFAIYAMGWYRQAPGKERELVAAISSSSGSTYYADSVKGRFTISRDNAKNTVYLQMNSLKPEDTAVYYCAAESGRRIKYWRGYYYWGQGTQVTVSS
polyreactivity (PSR sort gate): low polyreactivity

QVQLVESGGGLVQAGGSLSLSCAASGRIRRYTMGWYRQAPGKERELVASISGNGGSTYYADSVTGRFTISRDNAKNTVYLQMNSLKPEDTAVYDCARTKQEYTFGQFYLGDYWGQGTQVTVSS
polyreactivity (PSR sort gate): low polyreactivity

QVQLVESGGGLVQAGGSLRLICAASGFTFWNYAMGWYRQAPGKERELVAAITWSGGITYYADSVKGRFTISRDNAKNTVYLQMNSLKPEDTAVYYCAAYPQYQPEWYYIEYDYWGQGTQVTVSS
polyreactivity (PSR sort gate): low polyreactivity

QVQLLESGGGLVQAGGSLRLSCAASGSIFWYNAMGWYRQAPGKERELVATISSRGDGTYYADSVKGRFTISRDNAKNTVYLQMNSLKPEDTAVYYCNKYRQQGWEFDYWGQGTQVTVSS
polyreactivity (PSR sort gate): high polyreactivity

QVQLVESGGGLVQAGGSLRLSCAASGRTFRFYVMGWYRQAPGKERELVAAISRGGGSTYYADSVKGRFTISRDNAKNTVYLQMNSLKPEDTAVYYCAAKPYKTRSSYWGDYYWGQGTQVTVSS
polyreactivity (PSR sort gate): high polyreactivity

QVQLVESGGGLVQAGGSLRLSCAASGSTFYVYAMGWYRQAPGKVREFVATISTSGAITYYADSVKGRFTISRDNAKNTVYLQMNSQKPEDTAVYYCARSGSLLSQVWYNYWGQGTQVTVTS
polyreactivity (PSR sort gate): low polyreactivity

QVQLVESGGGLVQAGGSLRLSCAASGRTFRDYVMGWYRQAPGKERELVAAISTRGASTYYADSVKGRFTISRDYAKNTVYLQMNSLKPEDTAVYYCAARSTRRGNEYDYWGQGTQVTVSS
polyreactivity (PSR sort gate): high polyreactivity

QVQLVESGGGLVQAGGSLRLSCAASGSIFDIYAMAWYRQAPGKERELVADITSGGRTDYADSVKGRFTISRDNGKNTVYLQMNSLKPEDTAVYYCAADYIWDSVYWYISSYDYWGQGTKVTVSS
polyreactivity (PSR sort gate): low polyreactivity

QVQLVESGGGLVQAGGILRISCAAYGSIFLAYVMGWYRQAPGKERELVAAISYRGGSTYYADSVKGRFTISRDNSKNTVYLQMNSLKPEDTAVYYCAAEHLWGLYNYWGQGTQVTVSS
polyreactivity (PSR sort gate): low polyreactivity

QVQLVDSGGGLVQAGGSLRLSCAASGRIFSRYAMGWYRQAPGKERELVASISYSGGSTNYADSVKGRFTISRDNAKNTFYLQMNSLKPEDTAVYYCAAGQYSYRRRYNYWGQGTQVTVSS
polyreactivity (PSR sort gate): high polyreactivity

QVQLVESGGGLVQAGGSLRLSCAASGFTFATYAMGWYRQAPGKERELVAAITYRGGRTYYADSVKGRFTISRDNAKNTVYLQMNSLKPEDTAVYYCNTVYPRRLIFGYWGQGTQVTVSS
polyreactivity (PSR sort gate): high polyreactivity

QVQLVESGGGLVQAGGSLRLSCAASGSNFRGNAKGWSRQAPGKERELVAAISKSGGSTYYADSVKGRFTISRDNAKNTVYLQMNSLKPEDTAVYYCAARTTYLYGMYYWGQGTQVTVSS
polyreactivity (PSR sort gate): low polyreactivity

QVQLVESGGGLVHAGGSLRLSCAASGRTLGGYAMGWYRQAPGKERELVAAISWNGGSTYYADSVKVRFTISRDNAKNTVYFQMNCLKPEDSAVYYCARVYSGPKAGAYDYWGQGTQVTVSS
polyreactivity (PSR sort gate): high polyreactivity

QEQLVESGGGLVQAGGSLRLSCAASGGTFGSNTRGWYRQAPGKERELVAAITSGVSTNYADSVKGRFTISRDNAKITVYLQMNRLKPEDTAVYYCAKELWSEEYETIITYYGFDYLGQGTQVTVSS
polyreactivity (PSR sort gate): low polyreactivity

QVQLVESGGGLVQAGGSLRLSCAASGSIFRSYAMGWYRQAPGKERELVAAISSRSGSTYYADSVKGRFTISRDNAKNTVYLQMISLKPEDTAVYYCAAQHRHSYGYWGQGTQVTVSS
polyreactivity (PSR sort gate): high polyreactivity

QVQIVESGGALVQAGGSLRFSCAASGSIFFSNTRGWYRQAPGKEREFVAAITWSTGNTYYADSVKGRFTISRDNAKNTVYLQMNSLKPEDTAVYYCYAEYLVITWYGGVEFDYWGQGTQVTVSS
polyreactivity (PSR sort gate): low polyreactivity

QVQLHESGGGLVQAGGSLLSCAASGTISYYREMGWYRQAPGKERELVAGIGVGTITYYADSVKGRFTISRDNAKNTVYLHMNSLKPEDTAVYYCAAHFDGNDSHAYWGQGTQVTVSS
polyreactivity (PSR sort gate): low polyreactivity

QVQLVESGGGLVQAGRSLRLSCAASGRIFADYAMGWYRQAPGKERQLVAAITSGGTTYADSVKGRFTISRDNAKNTVYLQMNSLKPEDSAVYYCAAQGQGRTGGFGKGSTYGYWGQGTQVTVSS
polyreactivity (PSR sort gate): low polyreactivity

QVQLVESGGGLVQAGGSLRLSCAASGSIFIYYSMGWYRQAPGKERELVAAISWSGGDTYYADSVKGRFTISRDNAKNTVYLQMNSLKPEDTAVYYCAADSVTRPAGDYWGQGTQVTVSS
polyreactivity (PSR sort gate): low polyreactivity

QVQLVESGGGLVQAGGSLSLSCAASGSTFSRNTMGRYRQAPRKERELVAGISSSGGSTYYADSVKGRFTISRDNAKNTVYLQMNSLKQEDTAVYYCSARFYVSFVGYNYWGQGTQVTVSS
polyreactivity (PSR sort gate): high polyreactivity

QVQLVESGGGLVQAGGSLRLTCADSGIIYTYNAMRWYRQAPGKEMEFVATITWSGGSTYYADSVKGRFTISRDNAMNTVYFQMNSLKPEDTAVYYCAVDYSRHGYWSPVYEFNYWGQGTQVTVSS
polyreactivity (PSR sort gate): low polyreactivity

QVQLVESGGGLVQAGGSLRLSCAASGSTFAIYAMGWYRQAPGKERELVAAISKSGGSTYYADSVKGRFTISRDNAKNTVYLQMNSLKPEDTAVYYCARRQYAFGPYGFYYWGQGTQVTVSS
polyreactivity (PSR sort gate): high polyreactivity

QVQLVESGGGLVQAGGSLRLSCAASGSIFDSNAMGWYRQAPRQERELVAAISSGGNTNYADSVKGRFTISRDNAKNTVYLQMNSLKPDDTAVYYCARDTQLPHFYGRVSEYDYWGQGTQVTVSA
polyreactivity (PSR sort gate): low polyreactivity

QVQLVESGGGLVQAGGSLRLSCAASGRTFRYYAMAWYRQAPGKERELVAAIRSGGITNYADSVKGRFTISLDNAKYTVYLQMNRLKPEDTAVYYCAQAIRGHYWGQGTQVTVSS
polyreactivity (PSR sort gate): high polyreactivity

QVQLVESGGGLVQAGGSLRLSCAASGRIFVPYVMGWYRQAPGKDRELVASISDSDTSTYYADSVKGRFTISRDNAKNNVYLQMNSMKPEDTAVYYCNVDYWGQGTQVTVSS
polyreactivity (PSR sort gate): low polyreactivity

QVQLVESGGGLVQAGGSLRLSCAASGSIFWSYAMGWYRQAPGKERELVAVINWSGGSTYYADSVKGRFTISRDNAKNTVYLQMNSLKPEDTAVYYCNKDLGPTKRPFTFDYWGQGTQVTVSS
polyreactivity (PSR sort gate): low polyreactivity

QVQLVESGGGLVQAGGSLRLSCAASGSIFGYYAMGWYRQAPGKERELVAAINRDGGSTYYADSVKGRFTISRDNAKNTVYLQMNSLKPEDTAVYYCAAVVRRPGPGRMDYWGQGTQVTVSS
polyreactivity (PSR sort gate): low polyreactivity

QVQLVESGGVLVQAGGSLRLSCAAMGWYRQAPGKERELVATITWSGGSTYYADSVKGRFTISRDNAKNTVYLQMNSLKPEDTAVYYCNSRATLLSPANTIRGYDYWGQGTQVTVSS
polyreactivity (PSR sort gate): low polyreactivity

QVQHVESGGGLVQAGGSLRLTCAATGRIFYTNTMGWYRQAPGKEREFVAAISWRGGSTYYADSVKGRFTISRDNAKNTVYLQMNSLKPEDTAVYYCAKTRTYFLSRYVSWGQGTQVTVSS
polyreactivity (PSR sort gate): high polyreactivity

QVQLVESGGRLVQAGGSLRLICAASGFTFWYYAIGWYRQAPGKESEFVASISWNGGRTYYADSVKGRFTISRDNAKNTVYLQMNSLKPEDTAVYYCATRVIYSFTDFKGDYWGQGTQVTVSS
polyreactivity (PSR sort gate): high polyreactivity

QVQLVESGGGLVQAGGSLRLSFAASGFTFYPYTKGWYRQAPGKEREFVAAISWNCGSTYYADSVKGRFTISRDNAKHTVYLQMNRLKPEDTAVYYCAADFDASRYEYWGQGTQVTVSS
polyreactivity (PSR sort gate): low polyreactivity

QVQLVQTGGGLVQAGGSLRLSCAASGSTFWYNAMGWSRQAPGKERELVARISYSGGSTYYADSVKGRFTISRDNAKNTVYLQMNCLKPEDTAVEYCAGRRPYKYDYWGQGTQVTVSS
polyreactivity (PSR sort gate): high polyreactivity

QVQLVESGGGLVQAGGSLRLSCAASGIIFAYYAMGWYRQAPGKERELVASISSGGTTKYADSVKGRFTISRDNAKNTVYLQMNSLKPEDTAVYYCAAEHRWRSWDMDYWGQGTQVTVSS
polyreactivity (PSR sort gate): low polyreactivity

QVQLVESGGGLVQAGGSLRLSCAASGRIFSYYAMGWYRQAPGKERELVAAISWSGGSTYYADSVKGRFTISRDNAKNTVYLQMNSLKPEDTAVYYCAAGVHWDRGDYWGQGTQVTVSS
polyreactivity (PSR sort gate): low polyreactivity

QVQLVESGGGLVQAGGSLRLSCAASGIIFIHNAMGGYRQAPGTERELVAAINWSGGRTSYADSVKGRFTISRDNAKNTVYLQMTRLKPEDTAVYYCAADGRRYSGEYYYWGQGTQVTVSS
polyreactivity (PSR sort gate): high polyreactivity

EEELVESGGGLVQAGGSLRLSCAASGSIFQYNAMGWYRQAPGKDRELVAVISWSGDTYYADSVKGRFTISRDNAKNTVYLQMNSLKPEDTAVYYCNAVQYTFTSEYGYWGQGTQVTVSS
polyreactivity (PSR sort gate): low polyreactivity

QVQLVESGGGLVQAGGSLRLSCAASGIIFYDYAMGWYRQAPGKERELVAAISRSGGSTYYADSVKGRFTISRDNAKNTVYLQMNSLKPEDTAVYYCAKDRDFSSPPTESGFDYWGQGTQVTVSS
polyreactivity (PSR sort gate): low polyreactivity

QVQLVESGGGLVQAGGSLRLSCAASGSTFPRNAMGWYRQAPGKERELVAAISSGGSTYYADSVKWRFTISRDNAKNTVYLQMNSLKPEDTAVYYCAARLYWPIIVVDLYGYDYWGQGTQVTVSS
polyreactivity (PSR sort gate): low polyreactivity

QVQLVESGGGLVQAGGSLRLSCAASGSILEIYAMGWYRQAPGKESEFVASISWDVSSTYYADSVKGRFTISRDNAKNTVYLQMNSLKPEDTAVYYCATSLVWGLYDWYYDLSAAFDYWGQGTQVTVSS
polyreactivity (PSR sort gate): low polyreactivity

QVQLVESGAGLVQAGGSLRLCCAASGRTYRLYAMGWYRQAPGKERELVAAITRGGRTNYADSVKGRFTISRDNAINTVYLQMYSLKPEDIAVYYCAARYVERHTDYYYWGQGTQVTVSS
polyreactivity (PSR sort gate): low polyreactivity
